Measured values published in PMC9029856, “Impact of Different [Tc(N)PNP]-Scaffolds on the Biological Properties of the Small cRGDfK Peptide: Synthesis, In Vitro and In Vivo Evaluations” (Molecules, 2022).
Read-outs that look alike come from different tables or passages of the source.

Tests used:
[1] = format: physicochemical
Description: To explore the impact of the PNP ligand on the lipophilicity of the complexes, Log Ps in a mixture of n-octanol and PBS were determined. The lipophilicity decreased in the order ^99mTc1 > ^99mTc2 > ^99mTc3. The lipophilic character of each compound correlated well with the corresponding HPLC retention time and protein binding behavior.
Determination of log P values. n-Octanol/PBS partition coefficients were determined by vortex mixing (20 min) 3.0 mL of n-octanol, 3.0 mL of PBS and 100 µL of the radiolabeled compound purified as above. After centrifugation (3000 g for 10 min), aliquots (100 µL) of both the organic and the aqueous phases were collected and counted with a γ-counter.

[2] = Cysteine (Cys) and Glutathione (GSH) challenge; format: physicochemical; settings: 37 °C, pH 7.4, 24 h; for % RCP in challenge with L-cysteine: excess free L-cysteine (10 mM); for % RCP in challenge with GSH: excess glutathione
Description: The inertness of the radioconjugates under conditions relevant for in vivo applications were assessed by evaluating the stability of ^99mTc1–3 in solution and after incubation (37 °C) with transchelating agents (glutathione and L-cysteine, 10–1 mM, pH 7.4).
Cysteine (Cys) and Glutathione (GSH) Challenge. Challenge experiments were carried out with the purified complex using an excess of Cys or GSH. An aliquot (50 µL) of an aqueous stock solution of cysteine hydrochloride (10 mM or 2 mM) was added to a propylene test tube containing PBS (400 µL, pH 7.4) and the relevant [^99mTc(N)(H2NS-cRGDfK)(PNP)]^+ complex (50 µL). The mixture was vortexed and incubated at 37 °C for 24 h. A control reaction containing an equal volume of water, instead of cysteine hydrochloride, was studied in parallel. At 0.5, 1, 3, and 24 h, aliquots of the reaction mixture were withdrawn and analyzed by HPLC chromatography. A similar procedure was applied using GSH (50 µL, 10 mM) as challenger.

[3] = set-up: species or system Sprague Dawley rats; settings: rat, in vivo, iv, 15 uCi/100 uL
Description: Pharmacokinetics and metabolism.
Female Sprague Dawley rats weighing 180–200 g were anesthetized with an intraperitoneal injection of a mixture of Zoletil (40 mg/kg) and xylazine (2 mg/kg). A jugular vein was surgically exposed, and the solution containing the radiolabeled peptide was injected (15 µCi/100 µL). The rats (n = 3) were scarified by cervical dislocation at different times after injection. The blood was withdrawn from the heart with a syringe immediately after death and quantified. Organs were excised, rinsed in saline, weighed, and the activity was counted in a NaI counter. The results were expressed as the percentage of injected activity per gram of tissue (%IA/g) to be able to compare our results with those reported in the literature.

[4] = tested on: human melanoma M21 (αvβ3 positive) cells; assay: Cell uptake and internalization in M21 cells; format: cell-based; settings: for cell uptake (sum of surface bound and internalized radioactivity), blocked: M21 blocked by an excess of cold cRGDfK; for cell uptake (sum of surface bound and internalized radioactivity), blocked / cell uptake (sum of surface bound and internalized radioactivity): 37 °C, 90 min; for cell uptake (sum of surface bound and internalized radioactivity): M21 unblocked; for specific/nonspecific ratio, internalized radioactivity only: melanoma cell lines
Description: Cell uptake and internalization studies were performed on receptor-positive human melanoma M21 (expressing high levels of αvβ3 integrin and moderate level of integrin αvβ5), human breast cancer MCF7 (exclusively expressing αvβ5), and receptor-negative human melanoma M21L cell lines. The expression of αvβ3 and αvβ5 by cells was already evaluated by flow cytometry (Table 2). The stability of each radiolabeled peptide in the culture media before and after cell exposure was assessed.
Experiments were conducted in suspension at 37 °C. The working conditions were set up to avoid cell damage and/or death. With the use of these information, the cells were pre-incubated in sterile glass tubes at 37 °C for 10 min, in the presence or not of cRGDfK pentapeptide (50 µL; 1.65 mM).
Then, 1 mL of the cell suspension (1 × 10^6 cells/mL) was incubated with intermittent agitation with 10 µL (10 µCi) of ^99mTc1–3. At 90 min, the cells were moved in Eppendorf microcentrifuge tubes (1.5 mL) and the incubation was interrupted by centrifugation (3000 rpm for 5 min at 10 °C). The supernatant (S1) was separated from the pellet. The cell pellet was treated 10 min at room temperature with saline acetate buffer (CH3COOH 0.2M/NaCl 0.5 M) to remove the membrane-bound compound. After centrifugation (3000 rpm for 10 min at 10 °C), the supernatant (S2) was separated from the pellet (P1), and each fraction was collected, placed in a separated counting tube, and the activity was measured using a NaI counter (Cobra II, Packard) to estimate both the cell uptake and the internalized fraction.
The uptake of complexes was expressed as percentage cell uptake of the total activity on 10^6 cells (% cell uptake/10^6 cells).
All assessments were conducted in triplicate for three experiments.

[5] = set-up: species or system Sprague Dawley rats; settings: rat, in vivo
Description: As expected, MRT values of liver and kidneys were much higher than the dose of stomach, spleen, lung, and heart.
The time–activity curves of the main organs were obtained using the biodistribution data (%IA/organ) as input for the CoKiMo spreadsheet software. Then, the organ mean residence times (MRT) were computed by integration of the organ activity curves, extrapolated until 5 half-lives of Tc-99m (30 h) and corrected for its physical decay, to evaluate the pharmacokinetic profile of each radiolabeled peptide.

## [Tc(N)(H2NS-cRGDfK)(PNP3)]^+ [^99mTc1]
[1]
  Log P: −1.72 ^1
[2]
  % RCP in challenge with L-cysteine: > 95%
  % RCP in challenge with GSH: > 95%
[3]; 0.5 h
  Blood: 0.81 ± 0.05 %IA/g
  Heart: 0.26 ± 0.05 %IA/g
  Intestine: 0.65 ± 0.16 %IA/g
  Kidneys: 2.71 ± 0.18 %IA/g
  Liver: 0.96 ± 0.10 %IA/g
  Lungs: 0.64 ± 0.09 %IA/g
  Muscle: 0.21 ± 0.09 %IA/g
  Spleen: 0.65 ± 0.09 %IA/g
  Stomach: 0.53 ± 0.07 %IA
  Urine: 27.2 ± 11.7 %IA
[3]; 1 h
  Blood: 0.30 ± 0.04 %IA/g
  Heart: 0.15 ± 0.01 %IA/g
  Intestine: 0.60 ± 0.12 %IA/g
  Kidneys: 1.57 ± 0.13 %IA/g
  Liver: 0.75 ± 0.02 %IA/g
  Lungs: 0.43 ± 0.01 %IA/g
  Muscle: 0.13 ± 0.06 %IA/g
  Spleen: 0.51 ± 0.04 %IA/g
  Stomach: 0.41 ± 0.02 %IA
  Urine: 33.1 ± 5.6 %IA
[3]; 2 h
  Blood: 0.09 ± 0.01 %IA/g
  Heart: 0.10 ± 0.02 %IA/g
  Intestine: 0.40 ± 0.07 %IA/g
  Kidneys: 0.92 ± 0.20 %IA/g
  Liver: 0.68 ± 0.06 %IA/g
  Lungs: 0.25 ± 0.03 %IA/g
  Muscle: 0.10 ± 0.06 %IA/g
  Spleen: 0.47 ± 0.04 %IA/g
  Stomach: 0.34 ± 0.04 %IA
  Urine: 54.3 ± 1.9 %IA
[3]; 4 h
  Blood: 0.05 ± 0.01 %IA/g
  Heart: 0.08 ± 0.01 %IA/g
  Intestine: 0.38 ± 0.01 %IA/g
  Kidneys: 0.88 ± 0.09 %IA/g
  Liver: 0.66 ± 0.07 %IA/g
  Lungs: 0.16 ± 0.04 %IA/g
  Muscle: 0.06 ± 0.01 %IA/g
  Spleen: 0.45 ± 0.00 %IA/g
  Stomach: 0.29 ± 0.02 %IA
  Urine: 55.9 ± 7.1 %IA
[4]
  cell uptake (sum of surface bound and internalized radioactivity), blocked: 2.15 ± 0.17 % cell uptake/10^6 cells
  cell uptake (sum of surface bound and internalized radioactivity): 2.88 ± 0.09 % cell uptake/10^6 cells
  specific/nonspecific ratio, internalized radioactivity only: 4.5
[5]
  MRT Blood: 14.7 min
  MRT Heart: 0.3 min
  MRT Kidney: 9.2 min
  MRT Liver: 30.5 min
  MRT Lung: 0.9 min
  MRT Spleen: 1.2 min
  MRT Stomach: 1.5 min

## [Tc(N)(H2NS-cRGDfK)(PNP3OH)]^+ [^99mTc3]
[1]
  Log P: −2.39
[2]
  % RCP in challenge with L-cysteine: 27.31 ± 3.6%
  % RCP in challenge with GSH: 73.33 ± 2.8%
[3]; 0.5 h
  Blood: 0.46 ± 0.07 %IA/g
  Heart: 0.25 ± 0.06 %IA/g
  Intestine: 1.29 ± 0.13 %IA/g
  Kidneys: 5.22 ± 0.44 %IA/g
  Liver: 0.90 ± 0.09 %IA/g
  Lungs: 0.62 ± 0.08 %IA/g
  Muscle: 0.17 ± 0.01 %IA/g
  Spleen: 0.43 ± 0.05 %IA/g
  Stomach: 0.72 ± 0.04 %IA
  Urine: 27.8 ± 5.6 %IA
[3]; 1 h
  Blood: 0.25 ± 0.03 %IA/g
  Heart: 0.15 ± 0.00 %IA/g
  Intestine: 1.95 ± 0.17 %IA/g
  Kidneys: 4.83 ± 0.35 %IA/g
  Liver: 0.80 ± 0.06 %IA/g
  Lungs: 0.49 ± 0.01 %IA/g
  Muscle: 0.13 ± 0.01 %IA/g
  Spleen: 0.39 ± 0.04 %IA/g
  Stomach: 0.64 ± 0.08 %IA
  Urine: 31.2 ± 3.0 %IA
[3]; 2 h
  Blood: 0.16 ± 0.01 %IA/g
  Heart: 0.13 ± 0.02 %IA/g
  Intestine: 3.76 ± 0.27 %IA/g
  Kidneys: 4.44 ± 0.32 %IA/g
  Liver: 0.75 ± 0.09 %IA/g
  Lungs: 0.37 ± 0.06 %IA/g
  Muscle: 0.12 ± 0.00 %IA/g
  Spleen: 0.36 ± 0.02 %IA/g
  Stomach: 0.57 ± 0.03 %IA
  Urine: 44.2 ± 10.9 %IA
[3]; 4 h
  Blood: 0.09 ± 0.01 %IA/g
  Heart: 0.12 ± 0.03 %IA/g
  Intestine: 4.17 ± 0.59 %IA/g
  Kidneys: 4.22 ± 0.45 %IA/g
  Liver: 0.67 ± 0.04 %IA/g
  Lungs: 0.32 ± 0.02 %IA/g
  Muscle: 0.08 ± 0.00 %IA/g
  Spleen: 0.34 ± 0.04 %IA/g
  Stomach: 0.46 ± 0.04 %IA
  Urine: 30.2 ± 9.45 %IA
[4]
  cell uptake (sum of surface bound and internalized radioactivity), blocked: 1.41 ± 0.25 % cell uptake/10^6 cells
  cell uptake (sum of surface bound and internalized radioactivity): 2.60 ± 0.36 % cell uptake/10^6 cells
  specific/nonspecific ratio, internalized radioactivity only: 4.29
[5]
  MRT Blood: 14.5 min
  MRT Heart: 0.4 min
  MRT Kidney: 36.7 min
  MRT Liver: 26.7 min
  MRT Lung: 1.6 min
  MRT Spleen: 0.8 min
  MRT Stomach: 2.1 min

## [Tc(N)(H2NS-cRGDfK)(PNP43)]^+ [^99mTc2]
[1]
  Log P: −1.95
[2]
  % RCP in challenge with L-cysteine: > 95%
  % RCP in challenge with GSH: > 95%
[3]; 0.5 h
  Blood: 0.65 ± 0.04 %IA/g
  Heart: 0.30 ± 0.01 %IA/g
  Intestine: 1.19 ± 0.14 %IA/g
  Kidneys: 6.77 ± 0.86 %IA/g
  Liver: 0.90 ± 0.13 %IA/g
  Lungs: 0.82 ± 0.09 %IA/g
  Muscle: 0.22 ± 0.03 %IA/g
  Spleen: 0.47 ± 0.02 %IA/g
  Stomach: 0.82 ± 0.07 %IA
  Urine: 17.7 ± 3.6 %IA
[3]; 1 h
  Blood: 0.35 ± 0.07 %IA/g
  Heart: 0.20 ± 0.04 %IA/g
  Intestine: 1.69 ± 0.17 %IA/g
  Kidneys: 6.20 ± 0.68 %IA/g
  Liver: 0.73 ± 0.01 %IA/g
  Lungs: 0.56 ± 0.10 %IA/g
  Muscle: 0.14 ± 0.03 %IA/g
  Spleen: 0.40 ± 0.05 %IA/g
  Stomach: 0.64 ± 0.08 %IA
  Urine: 28.5 ± 4.6 %IA
[3]; 2 h
  Blood: 0.19 ± 0.04 %IA/g
  Heart: 0.15 ± 0.06 %IA/g
  Intestine: 1.94 ± 0.25 %IA/g
  Kidneys: 5.51 ± 0.42 %IA/g
  Liver: 0.57 ± 0.03 %IA/g
  Lungs: 0.42 ± 0.02 %IA/g
  Muscle: 0.12 ± 0.01 %IA/g
  Spleen: 0.38 ± 0.04 %IA/g
  Stomach: 0.51 ± 0.08 %IA
  Urine: 41.5 ± 4.5 %IA
[3]; 4 h
  Blood: 0.11 ± 0.02 %IA/g
  Heart: 0.12 ± 0.01 %IA/g
  Intestine: 1.90 ± 0.19 %IA/g
  Kidneys: 4.27 ± 0.31 %IA/g
  Liver: 0.52 ± 0.07 %IA/g
  Lungs: 0.34 ± 0.04 %IA/g
  Muscle: 0.09 ± 0.00 %IA/g
  Spleen: 0.34 ± 0.07 %IA/g
  Stomach: 0.41 ± 0.09 %IA
  Urine: 43.5 ± 3.4 %IA
[4]
  cell uptake (sum of surface bound and internalized radioactivity), blocked: 1.48 ± 0.12 % cell uptake/10^6 cells
  cell uptake (sum of surface bound and internalized radioactivity): 2.57 ± 0.42 % cell uptake/10^6 cells
  specific/nonspecific ratio, internalized radioactivity only: 3.28
[5]
  MRT Blood: 16.9 min
  MRT Heart: 0.4 min
  MRT Kidney: 30.7 min
  MRT Liver: 25.9 min
  MRT Lung: 1.6 min
  MRT Spleen: 0.8 min
  MRT Stomach: 2.1 min
